In this assay the target is pVHL172-BirA(R118G)-HA fusion protein (human) (UniProt P40337). The assay can be described thus: proximity labelling; BioID with truncated VHL-BirA constructs in HeLa and 786-O cells; blots quantified as biotinylated prefoldin / pVHL expression level, full-length VHL213-BirA set as 1 (Fig 1C).

Several values for one entry are separate records, joined by “and”; a condition that tells them apart may be missing. Equal entries are not always repeated.

For “Prefoldin subunit 1 (from UniProt O60925 1-122) (natural protein)”, the fold lower binding than with the exons 2&3 version was 4 fold and 5 fold.
As to “Prefoldin subunit 3 (from UniProt P61758-1 1-197) (natural protein)”, the fold lower binding than with the exons 2&3 version is 4 fold and 5 fold.
